From patent publication US20110318339A1

Experiments:
[1] = target: rHuman Notch-1/Fc Chimera, CF (Cat# 3647-TK) (human) (UniProt P46531); experiment: Multispot ECL; Fab 170 nM
[2] = target: rHuman Erythropoietin R/Fc Chimera, CF (Cat# 963-ER) (human) (UniProt P19235); experiment: Multispot ECL; Fab 170 nM
[3] = target: rHuman EGF R/Fc Chimera, CF (Cat# 344-ER) (human) (UniProt P00533); experiment: Multispot ECL; Fab 170 nM
[4] = target: rHuman ErbB2/Fc Chimera, CF (Cat# 1129-ER) (human) (UniProt P04626); experiment: Multispot ECL; Fab 170 nM
[5] = target: rHuman CD44/Fc Chimera, CF (Cat# 3660-CD) (human) (UniProt P16070); experiment: Multispot ECL; Fab 170 nM
[6] = target: rHuman HGF R/c-MET/Fc Chimera, CF (Cat# 358-MT/CF) (human) (UniProt P08581); experiment: Multispot ECL; Fab 170 nM
[7] = target: rHuman P-Cadherin/Fc Chimera, CF (Cat# 861-PC) (human) (UniProt P22223); experiment: Multispot ECL; Fab 170 nM
[8] = target: rHuman IGF-1 sR, (IGF-1 sR), CF (Cat# 391-GR) (human) (UniProt P08069); experiment: Multispot ECL; Fab 170 nM
[9] = target: rHuman Notch-1/Fc Chimera, CF (Cat# 3647-TK) (human) (UniProt P46531); experiment: Multispot ECL; Fab 85.0 nM
[10] = target: rHuman Erythropoietin R/Fc Chimera, CF (Cat# 963-ER) (human) (UniProt P19235); experiment: Multispot ECL; Fab 85.0 nM
[11] = target: rHuman EGF R/Fc Chimera, CF (Cat# 344-ER) (human) (UniProt P00533); experiment: Multispot ECL; Fab 85.0 nM
[12] = target: rHuman ErbB2/Fc Chimera, CF (Cat# 1129-ER) (human) (UniProt P04626); experiment: Multispot ECL; Fab 85.0 nM
[13] = target: rHuman CD44/Fc Chimera, CF (Cat# 3660-CD) (human) (UniProt P16070); experiment: Multispot ECL; Fab 85.0 nM
[14] = target: rHuman HGF R/c-MET/Fc Chimera, CF (Cat# 358-MT/CF) (human) (UniProt P08581); experiment: Multispot ECL; Fab 85.0 nM
[15] = target: rHuman P-Cadherin/Fc Chimera, CF (Cat# 861-PC) (human) (UniProt P22223); experiment: Multispot ECL; Fab 85.0 nM
[16] = target: rHuman IGF-1 sR, (IGF-1 sR), CF (Cat# 391-GR) (human) (UniProt P08069); experiment: Multispot ECL; Fab 85.0 nM
[17] = target: rHuman Notch-1/Fc Chimera, CF (Cat# 3647-TK) (human) (UniProt P46531); experiment: Multispot ECL; Fab 340 nM
[18] = target: rHuman Erythropoietin R/Fc Chimera, CF (Cat# 963-ER) (human) (UniProt P19235); experiment: Multispot ECL; Fab 340 nM
[19] = target: rHuman EGF R/Fc Chimera, CF (Cat# 344-ER) (human) (UniProt P00533); experiment: Multispot ECL; Fab 340 nM
[20] = target: rHuman ErbB2/Fc Chimera, CF (Cat# 1129-ER) (human) (UniProt P04626); experiment: Multispot ECL; Fab 340 nM
[21] = target: rHuman CD44/Fc Chimera, CF (Cat# 3660-CD) (human) (UniProt P16070); experiment: Multispot ECL; Fab 340 nM
[22] = target: rHuman HGF R/c-MET/Fc Chimera, CF (Cat# 358-MT/CF) (human) (UniProt P08581); experiment: Multispot ECL; Fab 340 nM
[23] = target: rHuman P-Cadherin/Fc Chimera, CF (Cat# 861-PC) (human) (UniProt P22223); experiment: Multispot ECL; Fab 340 nM
[24] = target: rHuman IGF-1 sR, (IGF-1 sR), CF (Cat# 391-GR) (human) (UniProt P08069); experiment: Multispot ECL; Fab 340 nM
[25] = target: rHuman Notch-1/Fc Chimera, CF (Cat# 3647-TK) (human) (UniProt P46531); experiment: Multispot ECL; Fab […]
[26] = target: rHuman Erythropoietin R/Fc Chimera, CF (Cat# 963-ER) (human) (UniProt P19235); experiment: Multispot ECL; Fab […]
[27] = target: rHuman EGF R/Fc Chimera, CF (Cat# 344-ER) (human) (UniProt P00533); experiment: Multispot ECL; Fab […]
[28] = target: rHuman ErbB2/Fc Chimera, CF (Cat# 1129-ER) (human) (UniProt P04626); experiment: Multispot ECL; Fab […]
[29] = target: rHuman CD44/Fc Chimera, CF (Cat# 3660-CD) (human) (UniProt P16070); experiment: Multispot ECL; Fab […]
[30] = target: rHuman HGF R/c-MET/Fc Chimera, CF (Cat# 358-MT/CF) (human) (UniProt P08581); experiment: Multispot ECL; Fab […]
[31] = target: rHuman P-Cadherin/Fc Chimera, CF (Cat# 861-PC) (human) (UniProt P22223); experiment: Multispot ECL; Fab […]
[32] = target: rHuman IGF-1 sR, (IGF-1 sR), CF (Cat# 391-GR) (human) (UniProt P08069); experiment: Multispot ECL; Fab […]

Chain of rHuman Erythropoietin R/Fc Chimera, CF (Cat# 963-ER) (human) (P19235 25-250, change not shown): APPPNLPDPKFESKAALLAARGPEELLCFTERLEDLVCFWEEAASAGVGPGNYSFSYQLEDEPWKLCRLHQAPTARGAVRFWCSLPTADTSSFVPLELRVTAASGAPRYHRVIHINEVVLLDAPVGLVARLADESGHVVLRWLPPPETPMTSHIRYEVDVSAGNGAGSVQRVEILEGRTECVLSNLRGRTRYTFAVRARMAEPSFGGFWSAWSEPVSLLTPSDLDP

Substance: Fab VH4-34_IGHD7-27*01_IGHJ4*01 & V4-6_IGLJ4*01
- ECL signal [1]: 816
- ECL signal [2]: 790
- ECL signal [3]: 826
- ECL signal [4]: 964
- ECL signal [5]: 660
- ECL signal [6]: 757
- ECL signal [7]: 744
- ECL signal [8]: 832
- ECL signal [9]: 780
- ECL signal [10]: 817
- ECL signal [11]: 1000
- ECL signal [12]: 844
- ECL signal [13]: 693
- ECL signal [14]: 998
- ECL signal [15]: 709
- ECL signal [16]: 891
- ECL signal [17]: 1210
- ECL signal [18]: 1260
- ECL signal [19]: 1210
- ECL signal [20]: 1230
- ECL signal [21]: 959
- ECL signal [22]: 1240
- ECL signal [23]: 1160
- ECL signal [24]: 1040
- ECL signal [25]: 649
- ECL signal [26]: 494
- ECL signal [27]: 528
- ECL signal [28]: 866
- ECL signal [29]: 522
- ECL signal [30]: 607
- ECL signal [31]: 421
- ECL signal [32]: 646
